Results on three molecules are retold here after PMC4146490 (Nature communications, 2014).

What is called stoichiometry N is a count of units in the complex or per binding partner.

Sequences and labels used below:
B1: hnRNP A0, full length, recombinant (natural protein, UniProt Q13151 1-305, looked up)
chain: MENSQLCKLFIGGLNVQTSESGLRGHFEAFGTLTDCVVVVNPQTKRSRCFGFVTYSNVEEADAAMAASPHAVDGNTVELKRAVSREDSARPGAHAKVKKLFVGGLKGDVAEGDLIEHFSQFGTVEKAEIIADKQSGKKRGFGFVYFQNHDAADKAAVVKFHPIQGHRVEVKKAVPKEDIYSGGGGGGSRSSRGGRGGRGRGGGRDQNGLSKGGGGGYNSYGGYGGGGGGGYNAYGGGGGGSSYGGSDYGNGFGGFGSYSQHQSSYGPMKSGGGGGGGGSSWGGRSNSGPYRGGYGGGGGYGGSSF
B2: DAZ associated protein 1 (DAZAP1), full length, recombinant (natural protein, human, UniProt Q96EP5 1-407, looked up)
chain: MNNSGADEIGKLFVGGLDWSTTQETLRSYFSQYGEVVDCVIMKDKTTNQSRGFGFVKFKDPNCVGTVLASRPHTLDGRNIDPKPCTPRGMQPERTRPKEGWQKGPRSDNSKSNKIFVGGIPHNCGETELREYFKKFGVVTEVVMIYDAEKQRPRGFGFITFEDEQSVDQAVNMHFHDIMGKKVEVKRAEPRDSKSQAPGQPGASQWGSRVVPNAANGWAGQPPPTWQQGYGPQGMWVPAGQAIGGYGPPPAGRGAPPPPPPFTSYIVSTPPGGFPPPQGFPQGYGAPPQFSFGYGPPPPPPDQFAPPGVPPPPATPGAAPLAFPPPPSQAAPDMSKPPTAQPDFPYGQYAGYGQDLSGFGQGFSDPSQQPPSYGGPSVPGSGGPPAGGSGFGRGQNHNVQGFHPYRR
B3: hnRNP A2, full length, recombinant (natural protein, UniProt P22626-2 1-341, looked up)
chain: MEREKEQFRKLFIGGLSFETTEESLRNYYEQWGKLTDCVVMRDPASKRSRGFGFVTFSSMAEVDAAMAARPHSIDGRVVEPKRAVAREESGKPGAHVTVKKLFVGGIKEDTEEHHLRDYFEEYGKIDTIEIITDRQSGKKRGFGFVTFDDHDPVDKIVLQKYHTINGHNAEVRKALSRQEMQEVQSSRSGRGGNFGFGDSRGGGGNFGPGPGSNFRGGSDGYGSGRGFGDGYNGYGGGPGGGNFGGSPGYGGGRGGYGGGGPGYGNQGGGYGGGYDNYGGGNYGSGNYNDFGNYNQQPSNYGPMKSGNFGGSRNMGGPYGGGNYGPGGSGGSGGYGGRSRY

For assay [1], the target named is B2. Kind of assay: ITC. On the technique in general: ITC needs no label: the signal is the heat of the interaction.
Assay [2] concerns the target B1. The assay can be described thus: ITC.

As for B1, in assay [1], the binding result is “binds”. For the molecule B2, the “stoichiometry N” value in assay [2] amounted to 1. With B3, in assay [1], the binding result is listed as “binds”.
